# In PMC10804987:
# Biological target: PRRSV-2 nucleocapsid (N) protein with Myc tag
# Experiment: ELISA
# Settings: mutated N-His as coating antigen; N-Myc added; parent: est. 0.97; read off a plot
row,Substance,response [OD450nm]
1,PRRSV-2 nucleocapsid (N) protein with His tag Q109A,0.7
2,PRRSV-2 nucleocapsid (N) protein with His tag S105A,0.28
3,PRRSV-2 nucleocapsid (N) protein with His tag S105A; T108A; Q109A,0.2
4,PRRSV-2 nucleocapsid (N) protein with His tag T108A,1
